The source of these data is US20230357429A1 (JANUX THERAPEUTICS, published 2023).

The target in assay [1] is T1, Human TROP2 ECD (31-274 AA), biotinylated (human, UniProt P09758 31-274, biotinylated (site not stated)).
T1 construct: also called tumor-associated calcium signal transducer 2; Human TROP2-biotin
T1 sequence: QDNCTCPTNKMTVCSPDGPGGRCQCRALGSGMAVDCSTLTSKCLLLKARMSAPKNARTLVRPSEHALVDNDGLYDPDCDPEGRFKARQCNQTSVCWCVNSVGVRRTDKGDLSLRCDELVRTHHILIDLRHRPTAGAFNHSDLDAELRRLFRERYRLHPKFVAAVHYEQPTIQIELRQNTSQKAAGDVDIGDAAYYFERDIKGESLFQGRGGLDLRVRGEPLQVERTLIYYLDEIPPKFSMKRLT
Nature of the assay: ELISA, ratio of EC50 to that of TBD-1 wt. (In general: An ELISA detects its analyte on a solid surface through an enzyme-linked reagent.)

The target in assay [2] is T1, Human TROP2 ECD (31-274 AA), …. Nature of the assay: BLI (Octet), biotinylated human TROP2 ECD on SAX sensor, Fab 6.25-50 nM. (In general: BLI is a label-free optical method that tracks binding on a fibre tip over time.)
Assay [3] has the same target. Nature of the assay: ELISA: biotinylated TROP2 captured on neutravidin plate, Fab titrated, HRP secondary antibody.
The target is the same in assay [4]. Kind of assay: BLI (Octet), dissociation half-life from biotinylated human TROP2 ECD.
The target is the same in assay [5]. Nature of the assay: ELISA, biotinylated TROP2 ECD on neutravidin plate, Fab titrated.
For assay [6] the target is unchanged. Kind of assay: ELISA: biotinylated TROP2 captured on neutravidin plate, Fab titrated, HRP secondary antibody. The source holds these as a separate data set.
Assay [7] has the same target. Kind of assay: ELISA, biotinylated TROP2 ECD on neutravidin plate, Fab titrated. This is another data set of the same source.
For assay [8] the target is unchanged. Nature of the assay: ELISA on immobilized TROP2.
The target of assay [9] is T2, TCE-13 (anti-CD3 scFv N103A; anti-TROP2 wt).
T2 construct: scFv on the Fab heavy chain; also called TCE-13 (N103A)
Kind of assay: competition ELISA, TCE on captured CD3.

For assay [10], the target named is T3, TCE-20 (anti-CD3 scFv S110A; anti-TROP2 wt).
T3 construct: scFv on the Fab heavy chain; also called TCE-20 (S110A)
Nature of the assay: competition ELISA, TCE on captured CD3.

Assay [11] concerns the target T4, TCE-10 (anti-CD3 scFv R100A; anti-TROP2 wt).
T4 construct: scFv on the Fab heavy chain; also called TCE-10 (R100A)
Nature of the assay: competition ELISA, TCE on captured CD3.

Assay [12] concerns the target T5, TCE-14 (anti-CD3 scFv F104A; anti-TROP2 wt).
T5 construct: scFv on the Fab heavy chain; also called TCE-14 (F104A)
Nature of the assay: competition ELISA, TCE on captured CD3.

Assay [13] deals with T6, TCE-11 (anti-CD3 scFv H101A; anti-TROP2 wt).
T6 construct: scFv on the Fab heavy chain; also called TCE-11 (H101A)
Nature of the assay: competition ELISA, TCE on captured CD3.

For assay [14], the target named is T7, TCE-1 (anti-CD3 scFv wt; anti-TROP2 Fab wt).
T7 construct: anti-CD3 scFv fused to the N-terminus of the anti-TROP2 Fab heavy chain; also called TCE-1 (wt)
Kind of assay: competition ELISA: peptide titrated and pre-incubated with a constant concentration of TCE-1, binding of TCE-1 to plate-bound biotinylated CD3 detected.

Assay [15] addresses T8, TCE-33 (anti-CD3 scFv F240A; anti-TROP2 wt).
T8 construct: scFv on the Fab heavy chain; also called TCE-33 (F240A)
Kind of assay: competition ELISA, TCE on captured CD3.

Assay [16] deals with T9, TCE-31 (anti-CD3 scFv W238A; anti-TROP2 wt).
T9 construct: scFv on the Fab heavy chain; also called TCE-31 (W238A)
Nature of the assay: competition ELISA, TCE on captured CD3.

Where no end group is shown, it is not given here.

B1: TBD-2 (anti-TROP2 Fab, LC Q89A) (Fab, V domains shown)
VH: QVQLQQSGSELKKPGASVKVSCKASGYTFTNYGMNWVKQAPGQGLKWMGWINTYTGEPTYTDDFKGRFAFSLDTSVSTAYLQISSLKADDTAVYFCARGGFGSSYWYFDVWGQGSLVTVSS
VL: DIQLTQSPSSLSASVGDRVSITCKASQDVSIAVAWYQQKPGKAPKLLIYSASYRYTGVPDRFSGSGSGTDFTLTISSLQPEDFAVYYCAQHYITPLTFGAGTKVEIKR
On to B1, for which the “Fold shift in EC50 relative to wt” value in assay [1] was 23.5 fold. For the same molecule, the dissociation constant (Kd) in assay [2] came out at 10.4 nM. The concentration for a half-maximal effect (EC50) in [3] turned out to be 4.71 nM; in [5] it was 4.7 nM. The “t1/2” value in assay [4] came out at 24 min.

B2: TBD-19 (anti-TROP2 Fab, HC W106A) (Fab, V domains shown)
VH: QVQLQQSGSELKKPGASVKVSCKASGYTFTNYGMNWVKQAPGQGLKWMGWINTYTGEPTYTDDFKGRFAFSLDTSVSTAYLQISSLKADDTAVYFCARGGFGSSYAYFDVWGQGSLVTVSS
VL: DIQLTQSPSSLSASVGDRVSITCKASQDVSIAVAWYQQKPGKAPKLLIYSASYRYTGVPDRFSGSGSGTDFTLTISSLQPEDFAVYYCQQHYITPLTFGAGTKVEIKR
With B2, the EC50 in [6] and in [7] was 702 nM each time.

B3: TBD-9 (anti-TROP2 Fab, LC L96A) (Fab, V domains shown)
VH: QVQLQQSGSELKKPGASVKVSCKASGYTFTNYGMNWVKQAPGQGLKWMGWINTYTGEPTYTDDFKGRFAFSLDTSVSTAYLQISSLKADDTAVYFCARGGFGSSYWYFDVWGQGSLVTVSS
VL: DIQLTQSPSSLSASVGDRVSITCKASQDVSIAVAWYQQKPGKAPKLLIYSASYRYTGVPDRFSGSGSGTDFTLTISSLQPEDFAVYYCQQHYITPATFGAGTKVEIKR
For B3, the “Fold shift in EC50 relative to wt” value in [1] came to 84 fold. Further, the Kd in assay [2] came out at 8.4 nM. Besides, the EC50 in assay [3] and in [5] was 16.8 nM each time. The “t1/2” value in assay [4] turned out to be 5 min.

B4: TBD-3 (anti-TROP2 Fab, LC Q90A) (Fab, V domains shown)
VH: QVQLQQSGSELKKPGASVKVSCKASGYTFTNYGMNWVKQAPGQGLKWMGWINTYTGEPTYTDDFKGRFAFSLDTSVSTAYLQISSLKADDTAVYFCARGGFGSSYWYFDVWGQGSLVTVSS
VL: DIQLTQSPSSLSASVGDRVSITCKASQDVSIAVAWYQQKPGKAPKLLIYSASYRYTGVPDRFSGSGSGTDFTLTISSLQPEDFAVYYCQAHYITPLTFGAGTKVEIKR
Turning to B4, the “Fold shift in EC50 relative to wt” value in assay [1] amounted to 1.5 fold. This molecule also returned a dissociation constant (Kd) in assay [2] of 0.7 nM. Also, the results for the EC50 in [3] and in assay [5] were 0.27 nM and 0.3 nM, respectively. In addition, the “t1/2” value in assay [4] was 27 min.

B5: TBD-7 (anti-TROP2 Fab, LC T94A) (Fab, V domains shown)
VH: QVQLQQSGSELKKPGASVKVSCKASGYTFTNYGMNWVKQAPGQGLKWMGWINTYTGEPTYTDDFKGRFAFSLDTSVSTAYLQISSLKADDTAVYFCARGGFGSSYWYFDVWGQGSLVTVSS
VL: DIQLTQSPSSLSASVGDRVSITCKASQDVSIAVAWYQQKPGKAPKLLIYSASYRYTGVPDRFSGSGSGTDFTLTISSLQPEDFAVYYCQQHYIAPLTFGAGTKVEIKR
As to B5, in assay [1], the “Fold shift in EC50 relative to wt” value came out at 1 fold. For the same molecule, the dissociation constant (Kd) in assay [2] was determined as 0.6 nM. The EC50 was found to be 0.22 nM in assay [3] and 0.2 nM in [5]. For the same molecule, in assay [4], the “t1/2” value was 39 min.

B6: TBD-10 (anti-TROP2 Fab, LC T97A) (Fab, V domains shown)
VH: QVQLQQSGSELKKPGASVKVSCKASGYTFTNYGMNWVKQAPGQGLKWMGWINTYTGEPTYTDDFKGRFAFSLDTSVSTAYLQISSLKADDTAVYFCARGGFGSSYWYFDVWGQGSLVTVSS
VL: DIQLTQSPSSLSASVGDRVSITCKASQDVSIAVAWYQQKPGKAPKLLIYSASYRYTGVPDRFSGSGSGTDFTLTISSLQPEDFAVYYCQQHYITPLAFGAGTKVEIKR
Turning to B6, the “Fold shift in EC50 relative to wt” value in assay [1] is 1.5 fold. Also, the Kd in assay [2] was 0.6 nM. Further, the figures for the concentration for a half-maximal effect (EC50) in assay [3] and in assay [5] were 0.29 nM and 0.3 nM, respectively. In addition, in assay [4], the “t1/2” value turned out to be 37 min.

B7: TBD-8 (anti-TROP2 Fab, LC P95A) (Fab, V domains shown)
VH: QVQLQQSGSELKKPGASVKVSCKASGYTFTNYGMNWVKQAPGQGLKWMGWINTYTGEPTYTDDFKGRFAFSLDTSVSTAYLQISSLKADDTAVYFCARGGFGSSYWYFDVWGQGSLVTVSS
VL: DIQLTQSPSSLSASVGDRVSITCKASQDVSIAVAWYQQKPGKAPKLLIYSASYRYTGVPDRFSGSGSGTDFTLTISSLQPEDFAVYYCQQHYITALTFGAGTKVEIKR
On to B7, for which the “Fold shift in EC50 relative to wt” value in assay [1] was 1 fold. Also, in assay [2], binding was put at a Kd of 0.3 nM. The 50% effective concentration (EC50) in [3] and in assay [5] was 0.2 nM throughout. The “t1/2” value in [4] was determined as 61 min.

B8: TBD-6 (anti-TROP2 Fab, LC I93A) (Fab, V domains shown)
VH: QVQLQQSGSELKKPGASVKVSCKASGYTFTNYGMNWVKQAPGQGLKWMGWINTYTGEPTYTDDFKGRFAFSLDTSVSTAYLQISSLKADDTAVYFCARGGFGSSYWYFDVWGQGSLVTVSS
VL: DIQLTQSPSSLSASVGDRVSITCKASQDVSIAVAWYQQKPGKAPKLLIYSASYRYTGVPDRFSGSGSGTDFTLTISSLQPEDFAVYYCQQHYATPLTFGAGTKVEIKR
notes: also called TBD-6 (LC I93A mutant)
On to B8, for which the “Fold shift in EC50 relative to wt” value in assay [1] is 1.5 fold. Also, binding in [2] was put at a Kd of 0.7 nM. The values for the EC50 in assay [3] and in assay [5] were 0.29 nM and 0.3 nM, respectively. Also, the “t1/2” value in assay [4] turned out to be 28 min.

B9: PC-9 (bispecific antibody)
light: not shown
heavy: GGVDFCGLYHWPICYQGGGGSGGLSGRSDAGSPLGLAGSGGSQVQLQQSGSELKKPGASVKVSCKASGYTFTNYGMNWVKQAPGQGLKWMGWINTYTGEPTYTDDFKGRFAFSLDTSVSTAYLQISSLKADDTAVYFCARGGFGSSYWYFAVWGQGSLVTVSSASTKGPSVFPLAPSSKSTSGGTAALGCLVKDYFPEPVTVSWNSGALTSGVHTFPAVLQSSGLYSLSSVVTVPSSSLGTQTYICNVNHKPSNTKVDKKVEPKSC
notes: anti-TROP2 D109A
On to B9, for which the midpoint of the response in [8], the EC50, lay at 194 nM.

B10: PC-10 (bispecific antibody)
light: GGVDFCGLYHWPICYQGGGGSSGGSAAGLLAPPGGLSGRSDAGGGGSDIQLTQSPSSLSASVGDRVSITCKASQDVSIAVAWYQQKPGKAPKLLIYSASYRYTGVPDRFSGSGSGTDFTLTISSLQPEDFAVYYCQQHYITPLTFGAGTKVEIKRTVAAPSVFIFPPSDEQLKSGTASVVCLLNNFYPREAKVQWKVDNALQSGNSQESVTEQDSKDSTYSLSSTLTLSKADYEKHKVYACEVTHQGLSSPVTKSFNRGEC
heavy: not shown
notes: anti-TROP2 D109A
In the case of B10, in [8], the EC50 worked out at 181 nM.
In the case of GSQCLGPEWEVCPY (cysteine pairing not given here; also: biotinylated, site not given here, mask peptide for the CD3 scFv) [Peptide-66], the IC50 came out at 21400 nM in [9]; 721000 nM in [10]; 13000 nM in [11]; 7090 nM in [12]; 2620 nM in assay [13]; 3710 nM in [15]. Further, the IC50 in assay [16] turned out to be 51500 nM. In addition, in assay [14], the binding result is “binds”.
As for GSACLGPEWEVCPY (cysteine pairing not given here; also: biotinylated, site not given here, mask peptide for the CD3 scFv) [Peptide-75], the half-maximal inhibitory concentration (IC50) was found to be 47700 nM in [9]; 120000 nM in [10]; 4740 nM in [11]; 4210 nM in assay [12]; 2080 nM in assay [13]; 7460 nM in assay [15]. In addition, the binding result in assay [14] is “binds”.

The term Kd denotes a measure of binding affinity in units of concentration. Higher therefore signals lower affinity. A word on the EC50: it is the concentration giving half of the maximal effect. Read a high EC50 as a less potent agent. For orientation: IC50 means the concentration at which inhibition is half-maximal.
